{"source": "patent US8669088B2", "about": "“Enzyme associated with equol synthesis” (Otsuka Pharmaceutical Co., Ltd., priority 2007, dated 2014)", "molecules": {"B1": {"name": "E3 enzyme: polypeptide (SEQ ID NO: 13) having an activity to synthesize equol using tetrahydrodaidzein as a substrate (protein, listed as Lactococcus garvieae)", "chain": "MAEFDVEYDLVVVGGGASGKSAALIAAREGKRVVVLEKMPETGGLSMYAEGTAAFESSIQNELGTPRLSKYHFPTKQEGIEKFMGYSHQRANYDVVRAFVENSAETIDIYRDLGVVYKACDIAAEDDPNEVWTFHLPEGLGAHCQEVLLDAIQKLDVDIFTSTPAKELIIEDGAVVGVVAESDGEPLRVGGKAVILATGGMGSSPERIFKYSWFAPAAYNMNTLTPLQNVGDGLDLALSAGADPTYITTCPILAAGGRDMTMDSQVGGAGVNPGVWINKTGRRFAAESVAENIGDIGTYYGKQPGGVVWSILSQADIDRLVAEGSEIAIGEFVVYHKPMERLPIELEAHLESGLVKKAGSFEELAALIDVPVDTFVATMADYNEACEKGYDDAFMKKPQYLRPMVEGPFYAIPLATGTMGSAGGIRINGNMQVVDADYNAIPGLYAVGLDATGLYGDSYNMEVPGAANGFAHTSGRIAARHAISTM"}, "B2": {"name": "E1 enzyme: polypeptide (SEQ ID NO: 1) having an activity to synthesize dihydrodaidzein using daidzein as a substrate (protein, listed as Lactococcus garvieae)", "chain": "MKNKFYPKTFERGYIGNLEVENRAIRMPMGTELGNPDGSPSWASLKAYAEAADGGTGIVFMDNAGVTQFHHVGLSLASDNYIGPMSVLAKTIKQHGAIPGLQIVHPGRDAAFVRGDDLISSSRIQWEPWYENGGAVPRELTIEEIHDFVGYFGDCALRAQTAGFEIVDVHAACGVLLSNFLSPRNNTRNDMYGGSLHNRARFLLEVIRDIKKKCPNLPLAIRLSGIDFEPDGITIEETCEVAKMCEAAGADAINITWGSHAEVINAAGLLSKHGANHVEAAKMIKDAVSIPTMLCGGIYSPEIGEKLLEDGVCDFIGIGKPALADPMWAKKAAEGRPEDIRPCIGCGVGCHDRGMLSGGVVQCAVNAALYKFDEPVYPQAEVPKKVIIIGAGPAGCEAAITAKKCGHDVTIYEKRKIGGVLKEATVSDSKEDLGRLITYYETQLKKEGIEVIYEEATADTVVAGGFDVAIVACGATVRNLNIDGQDDPSVVYAMDFLDNDCKSDADRVVVVGGGIVGAETALILAEERGKDVTITTRSPEFFVSGVMGIAYMVRLGMAGVTIKPSTQLVAVKDGKPMFAGPRGLETLDVDQTIISSGFVPTFNQFRAQIEEKCEDVRVIGIGDCKASRMVMDAVHEGYIAGCNL"}, "B3": {"name": "E2 enzyme: polypeptide (SEQ ID NO: 7) having an activity to synthesize tetrahydrodaidzein using dihydrodaidzein as a substrate (protein, listed as Lactococcus garvieae)", "chain": "MAQEVKVPKMPGAPVFGKWISPEESVGQRLKGKKILLTGTTKGVGRVTQELLCAHGAFVCGSGRTPGVAASVADELKAKGYQAAGMDVDLSDYDAVKKWVEECAELMGGIDVVINNASHPGMAPFGEMTPEIWNYGIKNELDLVYNVCNCAWPYLQKADGASIIITSSTVALQGSNSPQACHAACKGACLSLARQLAAEGGPFGIRCNSVTPGLVWTEAMSNIPKEMASGLVAAQTTQQAVDPMDIAYAYLFLASDESRQITAANIPVDGGCAGAVTGGMQGEIEV"}}, "key": {"[1]": {"tested_on": "His-tagged recombinant E1 enzyme", "assay": "Influence of metal ions / reducing agent on dihydrodaidzein synthesis activity of E1 enzyme", "assay_type": "biochemical, Lactococcus 20-92 strain", "conditions": "for activation of E1 enzyme (dihydrodaidzein synthesizing enzyme activity): general statement in the description; for influence of metal ions on the conversion activity from daidzein to dihydrodaidzein: 100 μl of 100 mM metal ion solution in 1000 μl, 37° C., 2 hours, HPLC (FIG. 26)", "experimental": "Using the His-tagged recombinant E1 enzyme ([…]) expressed in Escherichia coli, purified by Ni-Sepharose, as an enzyme source, the influence of metal ions on the conversion activity from daidzein to dihydrodaidzein was examined. Various metals (MnCl2.2H2O, FeSO4.7H2O, CaCl2.2H2O, Zn(CH3C00)2.2H2O, CoSO4.7H2O, MgSO4.7H2O, NiSO4.6H2O) were dissolved in distilled water to obtain a concentration of 100 mM. Using the metal ion solution, an enzyme reaction mixture of the composition below was prepared, and was reacted at 37° C. for 2 hours to measure the activity. [table] After incubation, 3 mL of ethyl acetate was added to the obtained enzyme reaction mixture for extraction. After drying, the extract was dissolved by the mobile phase (eluent). The dissolved product was analyzed by HPLC to measure the contents of daidzein and dihydrodaidzein in the enzyme reaction mixture."}, "[2]": {"tested_on": "disrupted cell material of Lactococcus 20-92 strain", "assay": "Enzyme reaction with disrupted cell material of Lactococcus 20-92 strain as enzyme source (Example B1)", "assay_type": "biochemical", "conditions": "10 μg/mL substrate; 2 mM NADPH, 2 mM NADH; 37° C., 2 hours; HPLC (FIG. 9)", "experimental": "The Lactococcus 20-92 strain cells preserved at −80° C. were quickly thawed. The cells were suspended by tapping, and centrifuged at 4° C. (8,000 rpm×5 min) using a centrifuge VC-960 (Taitec). After removing the supernatant, 0.1 M potassium phosphate buffer/1 mM PMSF (phenylmethanesulfonyl fluoride)/2 mM DTT (dithiothreitol)/5 mM sodium hydrosulfite (pH 7.0) were added to obtain a cell suspension. The cell suspension was placed in a 2 ml tube prepared to include zirconia-silica beads (about 0.8 mL, 0.1 mm, 1 lb; Wakenyaku Co., Ltd.), and the tube was charged with 0.1 M potassium phosphate solution/1 mM PMSF/2 mM DTT/5 mM sodium hydrosulfite (pH 7.0) to fill the tube almost completely. For disruption, the tube was closed and kept on ice, where a cycle of 6,500 rpm×20 sec centrifugation and ice-cooling was repeated four times using FastPrep®-FP100A (Thermo Electron Corporation). The resulting disrupted cell material was used as an enzyme source in an enzyme reaction.\nA 1 mL enzyme reaction mixture of the composition below, containing 0.1 ml of the disrupted cell material obtained in (1) was prepared, and the mixture was incubated at 37° C. for 2 hours. After incubation, 3 mL of ethyl acetate was added to the resulting enzyme reaction product for extraction. The product was dried to prepare a sample for HPLC analysis. […]"}, "[3]": {"tested_on": "dihydrodaidzein", "assay": "Tetrahydrodaidzein biosynthesis activity in centrifuged supernatant of disrupted cell material and NADH or NADPH dependency (Example B2)", "assay_type": "biochemical, Lactococcus 20-92 strain", "conditions": "centrifuged supernatant of disrupted cells; 37° C., 2 hours; HPLC (FIG. 11)", "experimental": "The frozen cells were thawed and centrifuged at 4° C. for 15 minutes (5,000×G). The pellet was used in the test below. First, the pellet (wet weight 2.7 g) was suspended in 10 ml of a 0.1 M phosphate-potassium solution containing 1 mM PMSF and 5 mM sodium hydrosulfite. After preheating at 37° C. for 5 minutes, lysozyme was added in an amount of 100 mg per gram of the pellet (wet weight) to cause a reaction at 37° C. for 1.5 hours. Then, an equivalent amount of 0.1 M dipotassium phosphate solution was added to the reaction mixture, and the mixture was vigorously agitated with a vortex mixer after adding zirconia-silica beads (3 ml). The cells were then disrupted with a sonicator (Branson Sonifier Cell Disruptor 200) (3 cycles of a 5-minute sonication and a 2-minute rest). The disrupted cell suspension was centrifuged at about 10,000×G for 15 minutes to obtain a supernatant, which was then used as an enzyme source. An enzyme reaction mixture of the composition below was prepared, and was incubated at 37° C. for 2 hours. After incubation, 5 mL of ethyl acetate was added to the enzyme reaction product for extraction. Then, the product was dried to prepare a sample for HPLC analysis. [table]"}, "[4]": {"tested_on": "tetrahydrodaidzein", "assay": "Enzyme property of E3 enzyme (equol synthesis using tetrahydrodaidzein as a substrate)", "assay_type": "biochemical", "experimental": "Regarding polypeptides (Cb) and (Cc), the activity to synthesize equol using tetrahydrodaidzein as a substrate can be confirmed as follows. First, a polypeptide of interest is added to a substrate solution of the composition below at a concentration of 0.001 mg/mL. The solution is then incubated at 37° C. for 2 hours to check for the presence or absence of equol in the solution. The presence of equol in the solution after incubation is used as an indicator of the polypeptide's activity to synthesize equol using tetrahydrodaidzein as a substrate. Since E3 polypeptide has an enzyme activity to synthesize equol using tetrahydrodaidzein as a substrate, E3 polypeptide is also referred to as E3 enzyme. The optimal temperature of E3 enzyme is in the vicinity of about 23 to 37° C., and the optimal pH is 4.5."}, "[5]": {"tested_on": "daidzein", "assay": "Enzyme property of E1 enzyme (dihydrodaidzein synthesis using daidzein as a substrate)", "assay_type": "biochemical", "experimental": "Regarding polypeptides (Ab) and (Ac), the activity to synthesize dihydrodaidzein using daidzein as a substrate can be confirmed as follows. First, a polypeptide of interest is added to a substrate solution of the composition below at a concentration of 0.001 mg/mL. The solution is then incubated at 37° C. for 2 hours to check for the presence or absence of dihydrodaidzein in the solution. The presence of dihydrodaidzein in the solution after incubation is used as an indicator of the polypeptide's activity to synthesize dihydrodaidzein using daidzein as a substrate.\nSince E1 polypeptide has an enzyme activity to synthesize dihydrodaidzein using daidzein as a substrate, E1 polypeptide is also referred to as E1 enzyme. E1 enzyme is activated by the presence of a reducing agent such as Na2S2O4 and metal ions such as Fe^2+ and Mn^2+. […] The optimal temperature of E1 enzyme is in the vicinity of 30° C., and the optimal pH is 7.0."}, "[6]": {"tested_on": "dihydrodaidzein", "assay": "Enzyme property of E2 enzyme (tetrahydrodaidzein synthesis using dihydrodaidzein as a substrate)", "assay_type": "biochemical", "experimental": "Regarding polypeptides (Bb) and (Bc), the activity to synthesize tetrahydrodaidzein using dihydrodaidzein as a substrate can be confirmed as follows. First, a polypeptide of interest is added to a substrate solution of the composition below at a concentration of 0.001 mg/mL. The solution is then incubated at 37° C. for 2 hours to check for the presence or absence of tetrahydrodaidzein in the solution. The presence of tetrahydrodaidzein in the solution after incubation is used as an indicator of the polypeptide's activity to synthesize tetrahydrodaidzein using dihydrodaidzein as a substrate. Since E2 polypeptide has an enzyme activity to synthesize tetrahydrodaidzein using dihydrodaidzein as a substrate, E2 polypeptide is also referred to as E2 enzyme. […] The optimal temperature of E2 enzyme is in the vicinity of 37° C., and the optimal pH is 4.5."}}}
{"molecule": "O=S([O-])S(=O)[O-].[Na+].[Na+]", "note": "[Na2S2O4]", "values": [{"measurement": "activation of E1 enzyme (dihydrodaidzein synthesizing enzyme activity)", "setting": "[1]", "result": "activated"}]}
{"molecule": "[Fe+2]", "note": "[Fe^2+]", "values": [{"measurement": "influence of metal ions on the conversion activity from daidzein to dihydrodaidzein", "setting": "[1]", "result": "stimulated the activity"}, {"measurement": "activation of E1 enzyme (dihydrodaidzein synthesizing enzyme activity)", "setting": "[1]", "result": "activated"}]}
{"molecule": "O=C1c2ccc(O)cc2OCC1c1ccc(O)cc1", "note": "(centres unmarked) [dihydrodaidzein]", "values": [{"measurement": "enzyme reaction product from dihydrodaidzein as a substrate", "setting": "[2]", "result": "production of trans-tetrahydrodaidzein"}]}
{"molecule": "NC(=O)C1=CN([C@@H]2O[C@H](COP(=O)(O)OP(=O)(O)OC[C@H]3O[C@@H](n4cnc5c(N)ncnc54)[C@H](OP(=O)(O)O)[C@@H]3O)[C@@H](O)[C@H]2O)C=CC1", "note": "[NADPH]", "values": [{"measurement": "coenzyme dependency of the conversion of dihydrodaidzein into tetrahydrodaidzein", "setting": "[3]", "result": "much more strongly"}]}
{"molecule": "[Mn+2]", "note": "[Mn^2+]", "values": [{"measurement": "influence of metal ions on the conversion activity from daidzein to dihydrodaidzein", "setting": "[1]", "result": "stimulated the activity"}, {"measurement": "activation of E1 enzyme (dihydrodaidzein synthesizing enzyme activity)", "setting": "[1]", "result": "activated"}]}
{"molecule": "B1", "values": [{"measurement": "optimal pH of E3 enzyme", "setting": "[4]", "result": 4.5}, {"measurement": "reverse reaction of E3 enzyme", "setting": "[4]", "result": "synthesize tetrahydrodaidzein from equol"}]}
{"molecule": "B2", "values": [{"measurement": "coenzyme requirement of E1 enzyme", "setting": "[5]", "result": "requires NADPH or NADH as a coenzyme"}, {"measurement": "optimal pH of E1 enzyme", "setting": "[5]", "result": 7.0}, {"measurement": "optimal temperature of E1 enzyme", "setting": "[5]", "result": "~30", "unit": "°C"}, {"measurement": "reverse reaction of E1 enzyme", "setting": "[5]", "result": "synthesize daidzein from dihydrodaidzein"}]}
{"molecule": "B3", "values": [{"measurement": "coenzyme requirement of E2 enzyme", "setting": "[6]", "result": "requires NADPH or NADH as a coenzyme"}, {"measurement": "optimal pH of E2 enzyme", "setting": "[6]", "result": 4.5}, {"measurement": "optimal temperature of E2 enzyme", "setting": "[6]", "result": "~37", "unit": "°C"}, {"measurement": "reverse reaction of E2 enzyme", "setting": "[6]", "result": "synthesize dihydrodaidzein from tetrahydrodaidzein"}]}
